Patent US20150087577A1 (POLYPHOR, published 2015)
*1 amine or outer side, *2 acyl side, *3 side chain or, on linkers, in order; H or OH if unused. Bridges are numbered along the chain shown (N, C = ends). [ ]: non-standard residue; d: D form. IPegDab = L-2-amino-4{2-[2-(2-methoxy-ethoxy)-ethoxy]-acetylamino}-butyric acid, COCCOCCOCC(=O)NCC[C@H](N[*:1])C(=O)[*:2]; N(2-Aminoethyl)Gly = O=C(CN(CCN[*:3])[*:1])[*:2]; 2Nal = N[C@@H](Cc1ccc2ccccc2c1)C(=O)O; Cit = NC(=O)NCCC[C@H](N)C(=O)O; Dab = NCC[C@H](N)C(=O)O

These binders were tested against human CXCR4 (human, UniProt P61073 1-352) (assay: cell-based or functional assay).
Chain of human CXCR4 (P61073 whole entry): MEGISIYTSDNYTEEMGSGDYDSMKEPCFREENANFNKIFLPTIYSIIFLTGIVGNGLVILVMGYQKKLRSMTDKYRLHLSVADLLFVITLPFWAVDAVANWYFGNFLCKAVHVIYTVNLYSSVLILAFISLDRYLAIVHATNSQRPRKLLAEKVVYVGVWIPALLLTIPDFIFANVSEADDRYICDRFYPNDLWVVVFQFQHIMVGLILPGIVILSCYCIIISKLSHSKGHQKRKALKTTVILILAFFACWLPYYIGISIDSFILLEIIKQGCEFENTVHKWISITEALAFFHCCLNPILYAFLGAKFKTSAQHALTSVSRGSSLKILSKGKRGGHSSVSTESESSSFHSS

| Binder | IC50 (nM) Ca2+ assay (method 1) [nM] | IC50 (nM) Ca2+ assay (method 2) [nM] |
| --- | --- | --- |
| cyclo(YR[Cit]VR[dR]R[2Nal]FY[Cit]K[dP]P) (SMILES CC(C)[C@@H]1NC(=O)[C@H](CCCNC(N)=O)NC(=O)[C@H](CCCNC(=N)N)NC(=O)[C@H](Cc2ccc(O)cc2)NC(=O)[C@@H]2CCCN2C(=O)[C@H]2CCCN2C(=O)[C@H](CCCCN)NC(=O)[C@H](CCCNC(N)=O)NC(=O)[C@H](Cc2ccc(O)cc2)NC(=O)[C@H](Cc2ccccc2)NC(=O)[C@H](Cc2ccc3ccccc3c2)NC(=O)[C@H](CCCNC(=N)N)NC(=O)[C@@H](CCCNC(=N)N)NC(=O)[C@H](CCCNC(=N)N)NC1=O) [Example 1] | 2280 | – |
| cyclo(YR[Cit]VR[Cit][dP]RR[2Nal]VY[Cit]K[dP]P) (SMILES CC(C)[C@@H]1NC(=O)[C@H](Cc2ccc3ccccc3c2)NC(=O)[C@H](CCCNC(=N)N)NC(=O)[C@H](CCCNC(=N)N)NC(=O)[C@H]2CCCN2C(=O)[C@H](CCCNC(N)=O)NC(=O)[C@H](CCCNC(=N)N)NC(=O)[C@H](C(C)C)NC(=O)[C@H](CCCNC(N)=O)NC(=O)[C@H](CCCNC(=N)N)NC(=O)[C@H](Cc2ccc(O)cc2)NC(=O)[C@@H]2CCCN2C(=O)[C@H]2CCCN2C(=O)[C@H](CCCCN)NC(=O)[C@H](CCCNC(N)=O)NC(=O)[C@H](Cc2ccc(O)cc2)NC1=O) [Example 25] | 1000 | – |
| cyclo(YR[Cit]CRG[dP]HRWCY[Cit]K[dP]P) (disulfide 4-11; SMILES N=C(N)NCCC[C@@H]1NC(=O)[C@@H]2CSSC[C@H](NC(=O)[C@H](Cc3c[nH]c4ccccc34)NC(=O)[C@H](CCCNC(=N)N)NC(=O)[C@H](Cc3c[nH]cn3)NC(=O)[C@H]3CCCN3C(=O)CNC1=O)C(=O)N[C@@H](Cc1ccc(O)cc1)C(=O)N[C@@H](CCCNC(N)=O)C(=O)N[C@@H](CCCCN)C(=O)N1CCC[C@@H]1C(=O)N1CCC[C@H]1C(=O)N[C@@H](Cc1ccc(O)cc1)C(=O)N[C@@H](CCCNC(=N)N)C(=O)N[C@@H](CCCNC(N)=O)C(=O)N2) [Example 137] | – | 1.28 |
| cyclo(YR[Cit]CRG[dP][IPegDab]RWCY[Cit]K[dP]P) (disulfide 4-11; SMILES COCCOCCOCC(=O)NCC[C@@H]1NC(=O)[C@H]2CCCN2C(=O)CNC(=O)[C@H](CCCNC(=N)N)NC(=O)[C@@H]2CSSC[C@H](NC(=O)[C@H](Cc3c[nH]c4ccccc34)NC(=O)[C@H](CCCNC(=N)N)NC1=O)C(=O)N[C@@H](Cc1ccc(O)cc1)C(=O)N[C@@H](CCCNC(N)=O)C(=O)N[C@@H](CCCCN)C(=O)N1CCC[C@@H]1C(=O)N1CCC[C@H]1C(=O)N[C@@H](Cc1ccc(O)cc1)C(=O)N[C@@H](CCCNC(=N)N)C(=O)N[C@@H](CCCNC(N)=O)C(=O)N2) [Example 142] | – | 96.9 |
| cyclo(YR[Cit]CRG[dP][Cit]RWCY[Cit]K[dP]P) (disulfide 4-11; SMILES N=C(N)NCCC[C@@H]1NC(=O)[C@@H]2CSSC[C@H](NC(=O)[C@H](Cc3c[nH]c4ccccc34)NC(=O)[C@H](CCCNC(=N)N)NC(=O)[C@H](CCCNC(N)=O)NC(=O)[C@H]3CCCN3C(=O)CNC1=O)C(=O)N[C@@H](Cc1ccc(O)cc1)C(=O)N[C@@H](CCCNC(N)=O)C(=O)N[C@@H](CCCCN)C(=O)N1CCC[C@@H]1C(=O)N1CCC[C@H]1C(=O)N[C@@H](Cc1ccc(O)cc1)C(=O)N[C@@H](CCCNC(=N)N)C(=O)N[C@@H](CCCNC(N)=O)C(=O)N2) [Example 136] | – | 4.1 |
| cyclo(YR[Cit]C[N(2-Aminoethyl)Gly]G[dP]RR[2Nal]CY[Cit]K[dP]P) (disulfide 4-11; SMILES N=C(N)NCCC[C@@H]1NC(=O)[C@H](CCCNC(=N)N)NC(=O)[C@H]2CCCN2C(=O)CNC(=O)CN(CCN)C(=O)[C@@H]2CSSC[C@H](NC(=O)[C@H](Cc3ccc4ccccc4c3)NC1=O)C(=O)N[C@@H](Cc1ccc(O)cc1)C(=O)N[C@@H](CCCNC(N)=O)C(=O)N[C@@H](CCCCN)C(=O)N1CCC[C@@H]1C(=O)N1CCC[C@H]1C(=O)N[C@@H](Cc1ccc(O)cc1)C(=O)N[C@@H](CCCNC(=N)N)C(=O)N[C@@H](CCCNC(N)=O)C(=O)N2) [Example 138] | – | 63 |
| cyclo(YR[Cit]CRG[dP][Dab]R[2Nal]CY[Cit]K[dP]P) (disulfide 4-11; SMILES N=C(N)NCCC[C@@H]1NC(=O)[C@@H]2CSSC[C@H](NC(=O)[C@H](Cc3ccc4ccccc4c3)NC(=O)[C@H](CCCNC(=N)N)NC(=O)[C@H](CCN)NC(=O)[C@H]3CCCN3C(=O)CNC1=O)C(=O)N[C@@H](Cc1ccc(O)cc1)C(=O)N[C@@H](CCCNC(N)=O)C(=O)N[C@@H](CCCCN)C(=O)N1CCC[C@@H]1C(=O)N1CCC[C@H]1C(=O)N[C@@H](Cc1ccc(O)cc1)C(=O)N[C@@H](CCCNC(=N)N)C(=O)N[C@@H](CCCNC(N)=O)C(=O)N2) [Example 135] | – | 4.7 |
| cyclo(YR[Cit]FRFPRR[2Nal]VY[Cit]K[dP]P) (SMILES CC(C)[C@@H]1NC(=O)[C@H](Cc2ccc3ccccc3c2)NC(=O)[C@H](CCCNC(=N)N)NC(=O)[C@H](CCCNC(=N)N)NC(=O)[C@@H]2CCCN2C(=O)[C@H](Cc2ccccc2)NC(=O)[C@H](CCCNC(=N)N)NC(=O)[C@H](Cc2ccccc2)NC(=O)[C@H](CCCNC(N)=O)NC(=O)[C@H](CCCNC(=N)N)NC(=O)[C@H](Cc2ccc(O)cc2)NC(=O)[C@@H]2CCCN2C(=O)[C@H]2CCCN2C(=O)[C@H](CCCCN)NC(=O)[C@H](CCCNC(N)=O)NC(=O)[C@H](Cc2ccc(O)cc2)NC1=O) [Example 24] | 850 | – |
| cyclo(YR[Cit]CRA[dP]RRWCY[Cit]K[dP]P) (disulfide 4-11; SMILES C[C@@H]1NC(=O)[C@H](CCCNC(=N)N)NC(=O)[C@@H]2CSSC[C@H](NC(=O)[C@H](Cc3c[nH]c4ccccc34)NC(=O)[C@H](CCCNC(=N)N)NC(=O)[C@H](CCCNC(=N)N)NC(=O)[C@H]3CCCN3C1=O)C(=O)N[C@@H](Cc1ccc(O)cc1)C(=O)N[C@@H](CCCNC(N)=O)C(=O)N[C@@H](CCCCN)C(=O)N1CCC[C@@H]1C(=O)N1CCC[C@H]1C(=O)N[C@@H](Cc1ccc(O)cc1)C(=O)N[C@@H](CCCNC(=N)N)C(=O)N[C@@H](CCCNC(N)=O)C(=O)N2) [Example 143] | – | 0.9 |

Now from value to binder:

| IC50 (nM) Ca2+ assay (method 1) [nM] | IC50 (nM) Ca2+ assay (method 2) [nM] | Binder |
| --- | --- | --- |
| – | 0.38 | cyclo(YRTCRG[dP]RRYCYQK[dP]P) (disulfide 4-11; SMILES C[C@@H](O)[C@@H]1NC(=O)[C@H](CCCNC(=N)N)NC(=O)[C@H](Cc2ccc(O)cc2)NC(=O)[C@@H]2CCCN2C(=O)[C@H]2CCCN2C(=O)[C@H](CCCCN)NC(=O)[C@H](CCC(N)=O)NC(=O)[C@H](Cc2ccc(O)cc2)NC(=O)[C@@H]2CSSC[C@H](NC1=O)C(=O)N[C@@H](CCCNC(=N)N)C(=O)NCC(=O)N1CCC[C@@H]1C(=O)N[C@@H](CCCNC(=N)N)C(=O)N[C@@H](CCCNC(=N)N)C(=O)N[C@@H](Cc1ccc(O)cc1)C(=O)N2) [Example 145] |
| – | 0.65 | cyclo(YRYCRG[dP]RRYCYQK[dP]P) (disulfide 4-11; SMILES N=C(N)NCCC[C@@H]1NC(=O)[C@@H]2CSSC[C@H](NC(=O)[C@H](Cc3ccc(O)cc3)NC(=O)[C@H](CCCNC(=N)N)NC(=O)[C@H](CCCNC(=N)N)NC(=O)[C@H]3CCCN3C(=O)CNC1=O)C(=O)N[C@@H](Cc1ccc(O)cc1)C(=O)N[C@@H](CCC(N)=O)C(=O)N[C@@H](CCCCN)C(=O)N1CCC[C@@H]1C(=O)N1CCC[C@H]1C(=O)N[C@@H](Cc1ccc(O)cc1)C(=O)N[C@@H](CCCNC(=N)N)C(=O)N[C@@H](Cc1ccc(O)cc1)C(=O)N2) [Example 148] |
| – | 0.17 | cyclo(YRICRG[dP]RRYCYQK[dP]P) (disulfide 4-11; SMILES CC[C@H](C)[C@@H]1NC(=O)[C@H](CCCNC(=N)N)NC(=O)[C@H](Cc2ccc(O)cc2)NC(=O)[C@@H]2CCCN2C(=O)[C@H]2CCCN2C(=O)[C@H](CCCCN)NC(=O)[C@H](CCC(N)=O)NC(=O)[C@H](Cc2ccc(O)cc2)NC(=O)[C@@H]2CSSC[C@H](NC1=O)C(=O)N[C@@H](CCCNC(=N)N)C(=O)NCC(=O)N1CCC[C@@H]1C(=O)N[C@@H](CCCNC(=N)N)C(=O)N[C@@H](CCCNC(=N)N)C(=O)N[C@@H](Cc1ccc(O)cc1)C(=O)N2) [Example 147] |
| – | 0.18 | cyclo(LR[Cit]CRG[dP]RR[2Nal]CYQK[dP]P) (disulfide 4-11; SMILES CC(C)C[C@@H]1NC(=O)[C@@H]2CCCN2C(=O)[C@H]2CCCN2C(=O)[C@H](CCCCN)NC(=O)[C@H](CCC(N)=O)NC(=O)[C@H](Cc2ccc(O)cc2)NC(=O)[C@@H]2CSSC[C@H](NC(=O)[C@H](CCCNC(N)=O)NC(=O)[C@H](CCCNC(=N)N)NC1=O)C(=O)N[C@@H](CCCNC(=N)N)C(=O)NCC(=O)N1CCC[C@@H]1C(=O)N[C@@H](CCCNC(=N)N)C(=O)N[C@@H](CCCNC(=N)N)C(=O)N[C@@H](Cc1ccc3ccccc3c1)C(=O)N2) [Example 144] |
| – | 0.24 | cyclo(YRTCRG[dP]RRYCY[Cit]K[dP]P) (disulfide 4-11; SMILES C[C@@H](O)[C@@H]1NC(=O)[C@H](CCCNC(=N)N)NC(=O)[C@H](Cc2ccc(O)cc2)NC(=O)[C@@H]2CCCN2C(=O)[C@H]2CCCN2C(=O)[C@H](CCCCN)NC(=O)[C@H](CCCNC(N)=O)NC(=O)[C@H](Cc2ccc(O)cc2)NC(=O)[C@@H]2CSSC[C@H](NC1=O)C(=O)N[C@@H](CCCNC(=N)N)C(=O)NCC(=O)N1CCC[C@@H]1C(=O)N[C@@H](CCCNC(=N)N)C(=O)N[C@@H](CCCNC(=N)N)C(=O)N[C@@H](Cc1ccc(O)cc1)C(=O)N2) [Example 146] |
